B1: KL2B467 (Fab) (antibody, V domains shown)
VH: QVQLVESGGGVVQPGRSLRLSCAASGFTFSYYGMHWVRQAPGKGLEWVAFISYDGSNKYYADSVKGRFTISRDNSKNTLYLQMNSLRAEDTAVYYCAHLPYSGSYWAFDYWGQGTQVTVSS
VL: QSVLTQPPSVSVAPGQTASITCGGDNIGSKSVHWYQQKPGQAPVLVVYDNSDRPSGIPERFSGSNSGTTATLTISRVEAGDEADYYCQVWDSSSDHPVVFGGGTKVTV
B2: KL2B242 (Fab) (antibody, V domains shown)
VH: QVQLQESGPGLVKPSETLSLTCTVSGGSISSYYWSWLRQPAGSGLEWIGRLYVSGFTNYNPSLKSRVTLSLDPSRNQLSLKLSSVTAADTAVYYCAGDSGNYWGWFDPWGQGTLVTVSS
VL: SYELTQPPSVSVSPGETASITCSGDQLGENYACWYQQKPGQSPVLVIYQDSKRPSGIPERFSGSNSGNTATLTISGTQALDEADYYCQAWDNSIVVFGGGTKLTVL
B3: KL2B53 (Fab) (antibody, V domains shown)
VH: EVQLVESGGGVVQPGRSLRLSCVASGFTFSSYDIHWVRQAPGKGLEWVAIISYDGSKKDYTDSVKGRFTISRDNSKNTLYLQMDSLRVEDSAVYSCARESGWSHYYYYGMDVWGQGTMVTVSS
VL: DIVMTQSPSSLSASVGDRVTITCRASQDISNYLAWYQQKPGKVPKFLIYAASTLHSGVPSRFSGSGSGTDFTLTISSLQPEDVATYYCQKYNSAPYTFGQGTRLEIK

Assay: Thermal stability (Tm) by Differential Scanning Fluorimetry (NanoDSF)
Assay type: physicochemical
Settings: 0.5 mg/mL in Phosphate Buffered Saline, pH 7.4
Method: Thermal stability was determined by Differential Scanning Fluorimetry (NanoDSF) using an automated Prometheus instrument. NanoDSF was used to measure Tm of molecules at a concentration of 0.5 mg/mL in Phosphate Buffered Saline, pH 7.4. Measurements were made by loading samples into 24 well capillary from a 384 well sample plate. Duplicate runs were performed for each sample. The thermal scans span from 20° C. to 95° C. at a rate of 1.0° C./minute. Intrinsic tryptophan and tyrosine fluorescence were monitored at the emission wavelengths of 330 nm and 350 nm, and the F350/F330 nm ratio were plotted against temperature to generate unfolding curves.

Tm (° C.), >70 °C:
B1
B2
B3

Reference: patent publication US20250099635A1, “IIMMUNOCONJUGATES COMPRISING KALLIKREIN RELATED PEPTIDASE 2 ANTIGEN BINDING DOMAINS AND THEIR USES” (Janssen Biotech, Inc., priority 2022, published 2025)
